The source of these data is publication PMC4333420, “REV7 is essential for DNA damage tolerance via two REV3L binding sites in mammalian DNA polymerase ζ” (Nucleic Acids Research, 2015).

This test concerns the target T1, His-REV7 (human, UniProt Q9UI95 1-211).
T1 construct: REV7 (MAD2L2), human; amplified from REV7 cDNA with primers from the start codon to the stop codon, cloned into pETDuet-1; Cloned into pETDuet-1 (SalI-NotI); also called His-REV7 fusion protein; source: E. coli, purified
Kind of test: pull-down; GST-fusion REV3L fragment, His-REV7 and Glutathione-Sepharose 4B beads, 4°C for 4 h in 500 μl of 0.1B; blot with anti-His and anti-GST. As to conditions: both partners purified.

T1 sequence (Q9UI95 whole entry, the tested form may be a part): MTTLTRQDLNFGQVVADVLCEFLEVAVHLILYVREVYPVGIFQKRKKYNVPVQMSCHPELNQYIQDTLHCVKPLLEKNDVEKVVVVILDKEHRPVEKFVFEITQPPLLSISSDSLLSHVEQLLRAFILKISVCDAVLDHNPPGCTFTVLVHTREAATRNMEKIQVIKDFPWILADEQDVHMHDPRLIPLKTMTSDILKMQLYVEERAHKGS

B1: GST-REV3L 1847–1898 (domain or fragment, human, UniProt O60673 1847-1898, looked up)
chain: MLTPTPDSSPRSTSSPSQSKNGSFTPRTANILKPLMSPPSREEIMATLLDHD
notes: Cloned into pGEX6P-1 (GE Healthcare); also called positive control; source: E. coli, purified
As for B1, the binding result was “binds”.

B2: GST-REV3L 1974–2025 (domain or fragment, human, UniProt O60673 1974-2025, looked up)
chain: GVVNKGSSNSPKMVEDKKIVIMPCKCAPSRQLVQVWLQAKEEYERSKKLPKT
notes: Cloned into pGEX6P-1 (GE Healthcare); source: E. coli, purified
Take B2: the binding result was “binds”.
